What was measured:
Assay type in all cases: in vivo
[1] = tested on: soybean cyst nematode (SCN, Heterodera glycines); experiment: Controlled environment soybean seed treatment trial: SCN cysts on roots; conditions: for % Comparison to Control: base control = 100%
Steinernema feltiae = experiment: In-vitro plate assay: Steinernema feltiae juvenile death after direct treatment; conditions: 40 μL per well (ILEVO 20 μL)
Method: To determine the effects of enzymes on an additional soil-dwelling nematode species (Steinernema feltiae), a NemAttack™ package containing approximately 5 million S. feltiae juveniles was purchased from ARBICO Organics. The nematodes arrived already hatched and dispersed within a powder. To prepare the nematodes for use, an aliquot of the dry nematode mixture was rehydrated in water. The liquid nematode mixture was adjusted to a concentration of 20-30 nematode juveniles per 10 μL. The free enzymes Esterase B (SEQ ID NO: 89) and Chitinase 19F (SEQ ID NO: 182) were produced as described in Example 2.
Potato dextrose agar media containing chloramphenicol and chlortetracycline was prepared and added to sterile twenty-four-well cell culture plates (1 mL per well). The plates were divided according to the pre-determined N-value for each treatment (N=12-24). […]
To quantify the treatments' effects on nematode viability, the nematodes were examined under a dissecting microscope at 20× magnification. Initial (T0) values for the number of live juveniles, number of dead juveniles and total number of juveniles were recorded immediately after preparation of each well. […] Approximately 20-22 hours post addition of juveniles, the plates were evaluated, and the number of live juveniles, dead juveniles and total number of juveniles were recorded. […]

[2] = tested on: Fall armyworm (Spodoptera frugiperda); experiment: Diet-surface overlay (DSO) bioassay; conditions: for Larva Stage I / Larva Stage II / Larva Stage III / Larva Stage IV / Dead Larva: number of individuals
Outline: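 Enzyme treatments (0.1 mL) were spread and dried on artificial diet (no antibiotics), then one first-instar larva was placed per cell, 16 or 32 larvae per treatment. Trays were held at 27° C., 16:8 h light-dark, and developmental categories were counted after 7 days. Controls were filtered water and Btk spores at 1000 ppm.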

[3] = Table 11, free enzyme seed treatment 2 fl oz/unit, soybean P18A98X, ILEVO 0.15 mg AI/seed, 3 weeks after inoculation, base control 71.4

B1: Bacillus subtilis Esterase (EstB without signal sequence) (protein, listed as Bacillus subtilis)
chain: ESVHNPVVLVHGISGASYNFFAIKNYLISQGWQSNKLYAIDFYDKTGNNLNNGPQLASYVDRVLKETGAKKVDIVAHSMGGANTLYYIKYLGGGNKIQNVVTLGGANGLVSSTALPGTDPNQKILYTSIYSLNDQIVINSLSRLQGARNIQLYGIGHIGLLSNSQVNGYIKEGLNGGGLNTN
modifications: Esterase (EstB H191 without signal sequence)
Question: What does the source list for B1?
Answer: % Comparison to Control ([1]; Table 11): 27%; Average cysts per g of root tissue [1, 3]: 19.6 cysts per g of root tissue; Average cysts per g of root tissue ([1]; Table 15, seed treated with whole cell broth, base control 59.8): 56.3 cysts per g of root tissue; % Comparison to Control ([1]; Table 15, whole cell broth): 94%; % Comparison to Control ([1]; Table 25): 80%; Average cysts per g of root tissue ([1]; Table 25, soybean 3230E3, dried (PVP) formulation 0.04 units/seed, liquid 2 fl oz/unit, base control 289.9): 233.2 cysts per g of root tissue; Difference in Percent Death of Nematodes for 0 to 20 Hours (Steinernema feltiae; Table 23, water control 3%): 33%; Larva Stage I ([2]; Table 50, esterases, n=32): 3; Larva Stage II ([2]; Table 50, esterases, n=32): 4; Larva Stage III ([2]; Table 50, esterases, n=32): 14; Larva Stage IV ([2]; Table 50, esterases, n=32): 10; Dead Larva ([2]; Table 50, esterases, n=32, dose per treatment in U/mL Diet): 1; individuals with delayed development ([2]; text to Table 50): 67%

B2: Streptomyces coelicolor Chitinase F (Chi19F) (protein)
chain: ASCSSYHAWSADANYNTGDIVRYTDGKAYIAEHANPGYDPLISTWYWDPYACDGGSQTPVGNFVVSEAQFNQMFPGRNSFYTYSGLTAALSAYPGFANTGSDTTKKQEAAAFLANVSHETGGLVYIVEQNTANYPHYCDWNQPYGCPAGQAAYYGRGPIQLSWNFNYKAAGDALGIDLLGNPWLVQNDAAVAWKTGLWYWNTQSGPGTMTPHNAMVNGAGFGQTIRSINGSLECDGKNPAQVQSRVTKYQQFAQILGVSPGGNLYC
modifications: Chitinase F (Chi19F); Streptomyces coelicolor
Question: Which “% Comparison to Control” value ([1]; Table 11) does the source give for B2 here?
Answer: The value was 68%.

Question: And the “Average cysts per g of root tissue” value [1, 3]?
Answer: Its value is 48.8 cysts per g of root tissue.

Question: What about the “% Comparison to Control” value ([1]; Table 12) of the same molecule?
Answer: Its value is 79%.

Question: And the “Average cysts per g of root tissue” value ([1]; Table 12, seed treatment 2 fl oz/unit, ILEVO 0.15 mg AI/seed, base control 376.9)?
Answer: The value was 296.9 cysts per g of root tissue.

Question: And the “Difference in Percent Death of Nematodes for 0 to 22 Hours” value (Steinernema feltiae; Table 24, water control 7%)?
Answer: The value was 17%.

Question: What about the “Larva Stage I” value ([2]; Table 48, chitinases, n = 32) of the same molecule?
Answer: The value was 4.

Question: What about the “Larva Stage II” value ([2]; Table 48, chitinases, n = 32) of the same molecule?
Answer: The value was 14.

Question: And the “Larva Stage III” value ([2]; Table 48, chitinases, n = 32)?
Answer: The value was 5.

Question: And the “Larva Stage IV” value ([2]; Table 48, chitinases, n = 32)?
Answer: The value was 6.

Question: And the “Dead Larva” value ([2]; Table 48, chitinases, n = 32, dose per treatment in mU/mL Diet)?
Answer: Its value is 3.

From patent US20240324599A1, “PESTICIDAL ENZYMES FOR USE ON NEMATODES, INSECTS, AND MOLLUSKS” (priority 2023, published 2024)
